Results on 19 molecules are retold here after patent publication US20210364527A1 (QUANTUM SI, published 2021).

B1: FITC-labeled LA peptide LAKLDEESILKQK-FITC (peptide)
peptide: LAKLDEESILKQK-{FITC′}
B9: FITC-labeled YA peptide YAKLDEESILKQK-FITC (peptide)
peptide: YAKLDEESILKQK-{FITC′}
B10: FITC-labeled WA peptide WAKLDEESILKQK-FITC (peptide)
peptide: WAKLDEESILKQK-{FITC′}
B11: FITC-labeled IA peptide IAKLDEESILKQK-FITC (peptide)
peptide: IAKLDEESILKQK-{FITC′}
B14: FITC-labeled FA peptide FAKLDEESILKQK-FITC (peptide)
peptide: FAKLDEESILKQK-{FITC′}

Assay [1] deals with T1, ClpS from Thermosynochoccus elongatus (teClpS) (Thermosynechococcus elongatus, UniProt Q8DJY3 6-94).
T1 construct: Dye-labelled or streptavidin-complexed depending on the assay; also called Thermosynechococcus elongatus ClpS
T1 sequence: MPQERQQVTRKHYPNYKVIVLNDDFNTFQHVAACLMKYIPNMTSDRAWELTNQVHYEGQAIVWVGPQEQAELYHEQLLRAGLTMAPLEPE
Description: fluorescence polarization, FITC-peptide with ClpS:streptavidin complex, 23 C. A general note: Fluorescence polarisation rises when a labelled molecule tumbles more slowly, as on binding a larger partner.

Assay [2] has as its target T2, RA peptide (N-terminal arginine, penultimate alanine; rest of sequence not given).
T2 peptide: RAKLDEESILKQK-{FITC′}
As to the kind of experiment: fluorescence polarization.

Assay [3] concerns the target T3, IA peptide IAKLDEESILKQK (XAKLDEESILKQK, X = I).
T3 construct: Immobilized on the biolayer interferometry sensor
T3 peptide: IAKLDEESILKQK
Description: BLI heatmap.

Assay [4] deals with T4, F peptide FAKLDEESILKQK (XAKLDEESILKQK, X = F).
T4 construct: Immobilized on the biolayer interferometry sensor
T4 peptide: FAKLDEESILKQK
As to the kind of experiment: BLI heatmap.

The target in assay [5] is T5, LA peptide LAKLDEESILKQK (XAKLDEESILKQK, X = L).
T5 construct: Immobilized on the biolayer interferometry sensor
T5 peptide: LAKLDEESILKQK
Description: BLI heatmap.

Assay [6] deals with T6, VA peptide VAKLDEESILKQK (XAKLDEESILKQK, X = V).
T6 construct: Immobilized on the biolayer interferometry sensor
T6 peptide: VAKLDEESILKQK
As to the kind of experiment: BLI heatmap.

For assay [7], the target named is T7, Y peptide YAKLDEESILKQK (XAKLDEESILKQK, X = Y).
T7 construct: Immobilized on the biolayer interferometry sensor
T7 peptide: YAKLDEESILKQK
As to the kind of experiment: BLI heatmap.

Assay [8] has as its target T8, W peptide WAKLDEESILKQK (XAKLDEESILKQK, X = W).
T8 construct: Immobilized on the biolayer interferometry sensor
T8 peptide: WAKLDEESILKQK
As to the kind of experiment: BLI heatmap.

Assay [9] addresses T9, Kluyveromyces lactis UBR-box domain (PS528) (Kluyveromyces lactis, UniProt O60014 101-182).
T9 construct: UBR-streptavidin complex in fluorescence polarization
T9 sequence: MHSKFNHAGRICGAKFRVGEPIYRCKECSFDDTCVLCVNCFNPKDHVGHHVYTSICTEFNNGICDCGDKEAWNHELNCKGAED
As to the kind of experiment: biolayer interferometry single-point screen, 30 C. A general note: In BLI a coated tip is dipped into the sample, and binding shifts an interference pattern.

Assay [10] addresses T1, ClpS from Thermosynochoccus elongatus …. Description: fluorescence polarization, single point.
Assay [11] has as its target B1. As to the kind of experiment: fluorescence polarization, single point.
In assay [12] the target is B9. Description: fluorescence polarization, single point.
Assay [13] concerns the target B14. Description: fluorescence polarization, single point.
The target of assay [14] is B10. As to the kind of experiment: fluorescence polarization, single point.
For assay [15], the target named is B11. Description: fluorescence polarization, single point.

Primed or numbered codes have the meaning given here. Ends that are not written are not given here. FITC′ = not defined here

Regarding B1, the binding result in assay [1] is “binds”.

B2: PS690 (Bis-PS621, Linker 1) (designed binder)
chain: MHSKFSHAGRICGAKFKVGEPIYRCKECSFDDTCVLCVNCFNPKDHTGHHVYTTICTEFNNGICDCGDKEAWNHTLFCKAEEGGGGSGGGSGGGSGMHSKFSHAGRICGAKFKVGEPIYRCKECSFDDTCVLCVNCFNPKDHTGHHVYTTICTEFNNGICDCGDKEAWNHTLFCKAEEGGGSHHHHHHHHHHGGGSGGGSGGGSGLNDFFEAQKIEWHEGGGSGGGSGGGSGLNDFFEAQKIEWHE
notes: Single polypeptide; the entry includes the C-terminal His/bis-biotinylation tag
A word on the Kd: it is a measure of binding affinity in units of concentration. B2 yielded a Kd in assay [2] of 354 nM.

B3: PS379 (other)
chain: MSTQEEVLEEVKTTTQKENEIVLYNDDYNTFDHVIETLIYACEHTPVQAEQCAILVHYKGKCTVKTGSFDELKPRCSKLLEEGLSAEIV
For B3, the binding result in [3], in assay [4], in [5], in assay [6], in [7] and in assay [8] was “no binding” throughout.

B4: PS695 (Bis-PS528, Linker 3) (designed binder)
chain: MHSKFNHAGRICGAKFRVGEPIYRCKECSFDDTCVLCVNCFNPKDHVGHHVYTSICTEFNNGICDCGDKEAWNHELNCKGAEDGSAGSAAGSGEFGSAGSAAGSGEFGSAGSAAGSGEFMHSKFNHAGRICGAKFRVGEPIYRCKECSFDDTCVLCVNCFNPKDHVGHHVYTSICTEFNNGICDCGDKEAWNHELNCKGAEDGGSHHHHHHHHHHGGGSGGGSGGGSGLNDFFEAQKIEWHEGGGSGGGSGGGSGLNDFFEAQKIEWHE
notes: as for B2
The molecule B4 showed a Kd in [2] of 317 nM.

B5: PS368 (other)
chain: MASAPSTTLDKSTQVVKKTYPNYKVIVLNDDLNTFDHVANCLIKYIPDMTTDRAWELTNQVHYQGQAIVWTGPQEQAELYHQQLRREGLTMAPLEAA
In the case of B5, the binding result in assay [3] is given as “no binding”; in [4], “binds”; in [5] it was “binds”; in assay [6], “no binding”; in assay [7] it was “binds”; in assay [8] it was “binds”.

B6: PS691 (Bis-PS621, Linker 2) (designed binder)
chain: MHSKFSHAGRICGAKFKVGEPIYRCKECSFDDTCVLCVNCFNPKDHTGHHVYTTICTEFNNGICDCGDKEAWNHTLFCKAEEGGSAGSAAGSGEFMHSKFSHAGRICGAKFKVGEPIYRCKECSFDDTCVLCVNCFNPKDHTGHHVYTTICTEFNNGICDCGDKEAWNHTLFCKAEEGGGSHHHHHHHHHHGGGSGGGSGGGSGLNDFFEAQKIEWHEGGGSGGGSGGGSGLNDFFEAQKIEWHE
notes: as for B2
The molecule B6 displayed an equilibrium dissociation constant (Kd) in assay [2] of 369 nM.

B7: PS373 (other)
chain: MNRIKQEAVRTENLLICSESIRRTPGTMSNEESMFDEVVAVAVAEPETQHDERRGTKPKRQPPYHVILWDDTDHSFDYVIMMMKRLFRMPIEKGFQVAKEVDSSGRAICMTTTLELAELKRDQIHAFGKDELLPRCKGSMSATIEPAEG
As for B7, the binding result in assay [3], in assay [4], in [5], in assay [6], in [7] and in assay [8] was “no binding” throughout.

B8: HA peptide HAKLDEESILKQK (XAKLDEESILKQK, X = H) (peptide)
peptide: HAKLDEESILKQK
notes: Biolayer interferometry single-point screen of UBR-box homologs
Consider B8, for which the binding result in assay [9] is listed as “binds”.
As to B9, the binding result in assay [1] is listed as “binds”.
On the same count and under the same terms, with B10 the entry was “binds”.
Turning to B11, the binding result in assay [10] is reported as “no binding”.

B12: PS694 (Bis-PS528, Linker 2) (designed binder)
chain: MHSKFNHAGRICGAKFRVGEPIYRCKECSFDDTCVLCVNCFNPKDHVGHHVYTSICTEFNNGICDCGDKEAWNHELNCKGAEDGSAGSAAGSGEFMHSKFNHAGRICGAKFRVGEPIYRCKECSFDDTCVLCVNCFNPKDHVGHHVYTSICTEFNNGICDCGDKEAWNHELNCKGAEDGGSHHHHHHHHHHGGGSGGGSGGGSGLNDFFEAQKIEWHEGGGSGGGSGGGSGLNDFFEAQKIEWHE
notes: as for B2
On to B12, for which, in [2], binding was characterised by a dissociation constant (Kd) of 353 nM.

B13: PS435 (other)
chain: MTLSVALGPDTQESTQTGTAVSTDTLTAPDIPWNLVIWNDPVNLMSYVSYVFQSYFGYSETKANKLMMEVHKKGRSIVAHGSKEQVEQHAVAMHGYGLWATVEKATGGNSGGGKSGGPGKGKGKRG
Turning to B13, the binding result in assay [3] is recorded as “no binding”; in [4], “binds”; in assay [5], “binds”; in [6] it was “no binding”; in assay [7], “binds”; in assay [8], “binds”.
Consider B14, for which the binding result in assay [1] is “binds”.

B15: PS370 (other)
chain: MFNSLGTVLDPKKSKAKYPEARVIVLDDNFNTFQHVANCLLAIIPRMCEQRAWDLTIKVDKAGSAEVWRGNLEQAELYHEQLFSKGLTMAPIEKT
For the molecule B15, the binding result was “binds” in assay [11]; “binds” in assay [12]; “binds” in assay [13]; “binds” in [14]; “no binding” in [15]; “no binding” in [3]. In assay [6], the binding result was “no binding”.

B16: PS692 (Bis-PS621, Linker 3) (designed binder)
chain: MHSKFSHAGRICGAKFKVGEPIYRCKECSFDDTCVLCVNCFNPKDHTGHHVYTTICTEFNNGICDCGDKEAWNHTLFCKAEEGGSAGSAAGSGEFGSAGSAAGSGEFGSAGSAAGSGEFMHSKFSHAGRICGAKFKVGEPIYRCKECSFDDTCVLCVNCFNPKDHTGHHVYTTICTEFNNGICDCGDKEAWNHTLFCKAEEGGGSHHHHHHHHHHGGGSGGGSGGGSGLNDFFEAQKIEWHEGGGSGGGSGGGSGLNDFFEAQKIEWHE
notes: as for B2
Turning to B16, in [2], the Kd worked out at 478 nM.
Consider VAKLDEESILKQK-{FITC′} [FITC-labeled VA peptide VAKLDEESILKQK-FITC], for which the binding result in [10] is “no binding”.

B17: PS693 (Bis-PS528, Linker 1) (designed binder)
chain: MHSKFNHAGRICGAKFRVGEPIYRCKECSFDDTCVLCVNCFNPKDHVGHHVYTSICTEFNNGICDCGDKEAWNHELNCKGAEDGGGSGGGSGGGSGMHSKFNHAGRICGAKFRVGEPIYRCKECSFDDTCVLCVNCFNPKDHVGHHVYTSICTEFNNGICDCGDKEAWNHELNCKGAEDGGSHHHHHHHHHHGGGSGGGSGGGSGLNDFFEAQKIEWHEGGGSGGGSGGGSGLNDFFEAQKIEWHE
notes: as for B2
Consider B17, for which binding in assay [2] was characterised by a dissociation constant (Kd) of 263 nM.

B18: PS381 (other)
chain: MVAFSKKWKKDELDKSTGKQKMLILHNDSVNSFDYVIKTLCEVCDHDTIQAEQCAFLTHFKGQCEIAVGEVADLVPLKNKLLNKNLIVSIH
In the case of B18, the binding result in assay [3], in assay [4], in assay [5], in [6], in assay [7] and in assay [8] was “no binding” in each case.
